Data on 2 molecules can be found in article PMC10599630, “Human interleukin-12α and EBI3 are cytokines with anti-inflammatory functions” (Science Advances, 2023).

Experiment [1] has as its target T1, recombinant human IL-12β^C199S (previously purified) (human, UniProt P29460 23-328, C199S).
T1 construct: human interleukin-12 subunit beta (IL-12β/p40), UniProt P29460, with C199S; it may be the same construct as m7; also called p40 C199S; source: previously purified in our laboratory
T1 sequence (looked up): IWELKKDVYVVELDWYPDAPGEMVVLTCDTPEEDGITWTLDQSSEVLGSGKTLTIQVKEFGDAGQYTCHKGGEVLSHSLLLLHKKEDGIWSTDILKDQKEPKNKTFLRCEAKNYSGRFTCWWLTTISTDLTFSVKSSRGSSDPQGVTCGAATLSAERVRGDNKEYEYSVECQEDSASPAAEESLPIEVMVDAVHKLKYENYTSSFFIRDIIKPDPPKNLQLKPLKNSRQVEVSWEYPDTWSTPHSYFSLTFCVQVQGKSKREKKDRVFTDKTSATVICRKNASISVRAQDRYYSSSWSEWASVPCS
In words: pull-down; called co-IP with purified proteins: 1 μg of one protein and an equimolar amount of the other in 200 μl PBS, 1 hour at room temperature; Ni-nitrilotriacetic acid beads 2 hours at 4°C; wash PBS with 20 mM imidazole, elution 500 mM imidazole. Particulars: both partners purified.

Experiment [2] addresses T2, EBI3 (purified from Expi293) (human, UniProt Q14213 21-229).
T2 construct: human EBI3, UniProt Q14213; untagged; Untagged; pHEK293 ultra expression vector 1; also called recombinant human EBI3; source: Expi293, co-transfected with IL-27α^L162C,His
T2 sequence (looked up): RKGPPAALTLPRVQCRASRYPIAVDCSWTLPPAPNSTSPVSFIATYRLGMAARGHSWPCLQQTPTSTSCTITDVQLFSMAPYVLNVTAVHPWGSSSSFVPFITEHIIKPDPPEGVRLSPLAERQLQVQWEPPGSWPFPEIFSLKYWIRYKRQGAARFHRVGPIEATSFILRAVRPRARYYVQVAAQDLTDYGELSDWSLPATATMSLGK
Described as above. Particulars: both partners purified.

B1: IL-12α^C96S,His (natural protein, human, UniProt P29459 23-219, looked up)
chain: RNLPVATPDPGMFPCLHHSQNLLRAVSNMLQKARQTLEFYPCTSEEIDHEDITKDKTSTVEACLPLELTKNESSLNSRETSFITNGSCLASRKTSFMMALCLSSIYEDLKMYQVEFKTMNAKLLMDPKRQIFLDQNMLAVIDELMQALNFNSETVPQKSSLEEPDFYKTKIKLCILLHAFRIRAVTIDRVMSYLNAS
notes: human interleukin-12 subunit alpha (IL-12α/p35), UniProt P29459, with C96S (the cysteine of the interchain disulfide bond of IL-12); C-terminal TEV cleavage site followed by a GG-linker and His-tag; pcDNA3.4TOPO vector; also called IL-12αC96S with His-tag; source: ExpiCHO, co-transfected with IL-12β^C199S; not shown: His-tag, C-terminal, kept
Consider B1, for which the binding result in experiment [1] was “binds”.

B2: murine IL-27α (natural protein, UniProt Q8K3I6 29-234, looked up)
chain: FPTDPLSLQELRREFTVSLYLARKLLSEVQGYVHSFAESRLPGVNLDLLPLGYHLPNVSLTFQAWHHLSDSERLCFLATTLRPFPAMLGGLGTQGTWTSSEREQLWAMRLDLRDLHRHLRFQVLAAGFKCSKEEEDKEEEEEEEEEEKKLPLGALGGPNQVSSQVSWPQLLYTYQLLHSLELVLSRAVRDLLLLSLPRRPGSAWDS
notes: mouse interleukin-27 subunit alpha (IL-27α/p28), bought recombinant protein; also called mIL-27α; source: bought: R&D Systems, 7430-ML-010
Regarding B2, the binding result in experiment [2] was “binds”.
